Test results from publication PMC8099429, “Membrane binding controls ordered self-assembly of animal septins” (eLife, 2021).

How the values were obtained:
[1] = molecular target: Drosophila melanogaster septin hexamers composed of His6-DSep1, DSep2, Pnut-StrepII (Drosophila melanogaster) (UniProt P42207); experiment: atomic force microscopy on supported lipid bilayers; 12, 24 or 60 nM hexamers for 15 min at 19°C on silica-supported bilayers of 80% PC and 20% PS in polymerization buffer; mostly fixed with 1% glutaraldehyde, also unfixed
[2] = molecular target: Drosophila melanogaster septin hexamers composed of His6-DSep1, mEGFP-DSep2, and Pnut-StrepII (Drosophila melanogaster) (UniProt P42207); experiment: TIRF microscopy of bundles formed in solution; mEGFP-tagged hexamers diluted from 300 mM KCl into polymerization buffer with 50 mM KCl (20 mM imidazole pH 7.4), 100, 200, 500 nM; crowded onto a neutral PC bilayer with 0.1 wt-% methylcellulose; 20°C
[3] = molecular target: the molecule itself; experiment: scanning transmission electron microscopy (STEM) with mass-per-length mapping; septins preassembled for 1 hr at 20°C in solution at 50-500 nM, no membrane; TMV rods as mass standard

With “Drosophila melanogaster septin hexamers composed of His6-DSep1, DSep2, Pnut-StrepII (from UniProt P42207 1-361; P54359 1-419; P40797 1-539) (complex)” the threshold concentration for polymerization on negatively charged membranes [1] was less than 12 nM.

For “Drosophila melanogaster septin hexamers composed of His6-DSep1, mEGFP-DSep2, and Pnut-StrepII (from UniProt P42207 1-361; P54359 1-419; P40797 1-539) (complex)”, the threshold concentration for polymerization in solution [2] was 200 nM.

B1: Budding yeast septin octamers composed of Cdc3, Cdc10, Cdc11, and His6-Cdc12 (complex, budding yeast (S. cerevisiae))
chain 1: MSLKEEQVSIKQDPEQEERQHDQFNDVQIKQESQDHDGVDSQYTNGTQNDDSERFEAAESDVKVEPGLGMGITSSQSEKGQVLPDQPEIKFIRRQINGYVGFANLPKQWHRRSIKNGFSFNLLCVGPDGIGKTTLMKTLFNNDDIEANLVKDYEEELANDQEEEEGQGEGHENQSQEQRHKVKIKSYESVIEENGVKLNLNVIDTEGFGDFLNNDQKSWDPIIKEIDSRFDQYLDAENKINRHSINDKRIHACLYFIEPTGHYLKPLDLKFMQSVYEKCNLIPVIAKSDILTDEEILSFKKTIMNQLIQSNIELFKPPIYSNDDAENSHLSERLFSSLPYAVIGSNDIVENYSGNQVRGRSYPWGVIEVDNDNHSDFNLLKNLLIKQFMEELKERTSKILYENYRSSKLAKLGIKQDNSVFKEFDPISKQQEEKTLHEAKLAKLEIEMKTVFQQKVSEKEKKLQKSETELFARHKEMKEKLTKQLKALEDKKKQLELSINSASPNVNHSPVPTKKKGFLR
chain 2: MDPLSSVQPASYVGFDTITNQIEHRLLKKGFQFNIMVVGQSGLGKSTLINTLFASHLIDSATGDDISALPVTKTTEMKISTHTLVEDRVRLNINVIDTPGFGDFIDNSKAWEPIVKYIKEQHSQYLRKELTAQRERFITDTRVHAILYFLQPNGKELSRLDVEALKRLTEIANVIPVIGKSDTLTLDERTEFRELIQNEFEKYNFKIYPYDSEELTDEELELNRSVRSIIPFAVVGSENEIEINGETFRGRKTRWSAINVEDINQCDFVYLREFLIRTHLQDLIETTSYIHYEGFRARQLIALKENANSRSSAHMSSNAIQR
chain 3: MSGIIDASSALRKRKHLKRGITFTVMIVGQSGSGRSTFINTLCGQQVVDTSTTILLPTDTSTEIDLQLREETVELEDDEGVKIQLNIIDTPGFGDSLDNSPSFEIISDYIRHQYDEILLEESRVRRNPRFKDGRVHCCLYLINPTGHGLKEIDVEFIRQLGSLVNIIPVISKSDSLTRDELKLNKKLIMEDIDRWNLPIYNFPFDEDEISDEDYETNMYLRTLLPFAIIGSNEVYEMGGDVGTIRGRKYPWGILDVEDSSISDFVILRNALLISHLHDLKNYTHEILYERYRTEALSGESVAAESIRPNLTKLNGSSSSSTTTRRNTNPFKQSNNINNDVLNPASDMHGQSTGENNETYMTREEQIRLEEERLKAFEERVQQELLLKRQELLQREKELREIEARLEKEAKIKQEE
chain 4: MSAATATAAPVPPPVGISNLPNQRYKIVNEEGGTFTVMLCGESGLGKTTFINTLFQTVLKRADGQQHRQEPIRKTVEIDITRALLEEKHFELRVNVIDTPGFGDNVNNNKAWQPLVDFIDDQHDSYMRQEQQPYRTKKFDLRVHAVLYFIRPTGHGLKPIDIETMKRLSTRANLIPVIAKADTLTAQELQQFKSRIRQVIEAQEIRIFTPPLDADSKEDAKSGSNPDSAAVEHARQLIEAMPFAIVGSEKKFDNGQGTQVVARKYPWGLVEIENDSHCDFRKLRALLLRTYLLDLISTTQEMHYETYRRLRLEGHENTGEGNEDFTLPAIAPARKLSHNPRYKEEENALKKYFTDQVKAEEQRFRQWEQNIVNERIRLNGDLEEIQGKVKKLEEQVKSLQVKKSHLK
notes: Cdc3, budding yeast septin; Cdc10, budding yeast septin; Cdc11, budding yeast septin; Cdc12, budding yeast septin; Two copies of each chain follow from the word octamer with four named subunits; also called yeast septins; budding yeast septins; source: purified as described (Bertin et al., 2008); copies: 2 + 2 + 2 + 2
B1: binds [3].
